Experimental data taken from patent US20240209100A1 (DIAGONAL THERAPEUTICS, published 2024).
Where two headings read alike, the source gives them in different places.

T1: IL-18 receptor (IL-18Rα/IL-18Rβ) overexpressed on HEK-Blue IL-18 cells (Homo sapiens (Human), UniProt Q13478 19-541; O95256 20-599)
T1 sequence 1: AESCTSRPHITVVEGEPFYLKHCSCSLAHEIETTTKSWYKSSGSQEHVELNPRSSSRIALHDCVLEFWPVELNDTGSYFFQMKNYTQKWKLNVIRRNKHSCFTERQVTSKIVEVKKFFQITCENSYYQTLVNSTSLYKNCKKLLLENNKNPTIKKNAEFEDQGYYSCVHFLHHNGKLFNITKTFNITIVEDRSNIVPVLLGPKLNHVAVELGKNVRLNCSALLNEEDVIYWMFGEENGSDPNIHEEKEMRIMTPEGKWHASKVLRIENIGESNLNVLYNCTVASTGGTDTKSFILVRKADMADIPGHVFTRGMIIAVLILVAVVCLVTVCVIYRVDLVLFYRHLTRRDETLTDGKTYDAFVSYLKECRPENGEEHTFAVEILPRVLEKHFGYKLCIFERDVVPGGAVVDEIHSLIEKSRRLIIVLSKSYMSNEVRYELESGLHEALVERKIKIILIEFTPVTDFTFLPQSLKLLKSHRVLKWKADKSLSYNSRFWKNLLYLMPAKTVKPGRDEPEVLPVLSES
T1 sequence 2: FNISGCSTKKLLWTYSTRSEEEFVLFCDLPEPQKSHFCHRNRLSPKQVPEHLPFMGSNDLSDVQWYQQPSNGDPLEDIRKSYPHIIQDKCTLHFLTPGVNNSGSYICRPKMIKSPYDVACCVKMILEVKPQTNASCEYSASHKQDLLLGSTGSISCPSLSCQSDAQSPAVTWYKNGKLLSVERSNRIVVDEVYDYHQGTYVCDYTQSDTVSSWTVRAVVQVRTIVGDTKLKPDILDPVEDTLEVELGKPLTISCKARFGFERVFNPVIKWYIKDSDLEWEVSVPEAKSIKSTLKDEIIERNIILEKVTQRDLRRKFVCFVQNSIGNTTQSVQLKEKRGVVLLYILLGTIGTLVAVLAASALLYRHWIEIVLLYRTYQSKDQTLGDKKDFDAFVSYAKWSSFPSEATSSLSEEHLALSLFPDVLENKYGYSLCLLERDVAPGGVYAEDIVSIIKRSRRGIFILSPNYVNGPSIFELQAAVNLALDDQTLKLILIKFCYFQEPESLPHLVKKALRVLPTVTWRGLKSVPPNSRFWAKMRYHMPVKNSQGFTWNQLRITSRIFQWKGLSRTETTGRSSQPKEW

T2: human IL-18Rα (human, UniProt Q13478 19-329, limits assumed)
T2 construct: Monomeric antigen injected in SPR; also called huIL18Ra; IL-18R alpha
T2 sequence: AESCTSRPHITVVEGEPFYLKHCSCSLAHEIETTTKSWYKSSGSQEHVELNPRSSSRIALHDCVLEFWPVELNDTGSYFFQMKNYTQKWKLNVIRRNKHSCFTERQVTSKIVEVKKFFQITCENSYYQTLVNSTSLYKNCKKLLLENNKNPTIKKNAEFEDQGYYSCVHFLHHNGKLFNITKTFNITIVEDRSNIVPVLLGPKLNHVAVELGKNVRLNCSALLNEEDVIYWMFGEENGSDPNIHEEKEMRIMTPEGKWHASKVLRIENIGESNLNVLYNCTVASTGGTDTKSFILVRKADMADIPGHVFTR

T3: human IL-18Rβ (human, UniProt O95256 20-356, limits assumed)
T3 construct: Monomeric antigen injected in SPR; also called IL-18R beta; IL-18Rb
T3 sequence: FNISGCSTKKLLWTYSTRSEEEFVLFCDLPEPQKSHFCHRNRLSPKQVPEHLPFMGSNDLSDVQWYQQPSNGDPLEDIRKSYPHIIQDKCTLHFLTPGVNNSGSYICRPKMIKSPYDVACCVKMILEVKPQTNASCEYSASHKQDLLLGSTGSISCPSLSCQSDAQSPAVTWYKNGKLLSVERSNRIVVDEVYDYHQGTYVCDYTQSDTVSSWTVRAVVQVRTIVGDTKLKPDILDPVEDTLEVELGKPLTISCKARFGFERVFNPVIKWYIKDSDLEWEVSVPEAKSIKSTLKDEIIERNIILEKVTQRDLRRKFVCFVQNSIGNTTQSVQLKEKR

T4: cynomolgus IL-18Rα (cynomolgus, UniProt A0A2K5V3J9 19-328)
T4 construct: also called Cyno IL-18Rα; non-human primate IL-18Rα
T4 sequence: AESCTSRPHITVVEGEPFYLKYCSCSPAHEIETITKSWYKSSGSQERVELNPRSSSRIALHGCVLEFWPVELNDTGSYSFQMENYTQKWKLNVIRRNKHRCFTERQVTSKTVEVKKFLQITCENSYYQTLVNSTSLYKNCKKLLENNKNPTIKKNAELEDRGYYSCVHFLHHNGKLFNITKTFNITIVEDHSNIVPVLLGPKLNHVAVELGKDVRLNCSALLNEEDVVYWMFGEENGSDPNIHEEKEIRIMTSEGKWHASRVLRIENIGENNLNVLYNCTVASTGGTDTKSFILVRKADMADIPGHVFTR

T5: IL-18 receptor (IL-18Rα/IL-18Rβ) on human PBMCs (human, UniProt Q13478 19-541; O95256 20-599)
T5 sequence 1: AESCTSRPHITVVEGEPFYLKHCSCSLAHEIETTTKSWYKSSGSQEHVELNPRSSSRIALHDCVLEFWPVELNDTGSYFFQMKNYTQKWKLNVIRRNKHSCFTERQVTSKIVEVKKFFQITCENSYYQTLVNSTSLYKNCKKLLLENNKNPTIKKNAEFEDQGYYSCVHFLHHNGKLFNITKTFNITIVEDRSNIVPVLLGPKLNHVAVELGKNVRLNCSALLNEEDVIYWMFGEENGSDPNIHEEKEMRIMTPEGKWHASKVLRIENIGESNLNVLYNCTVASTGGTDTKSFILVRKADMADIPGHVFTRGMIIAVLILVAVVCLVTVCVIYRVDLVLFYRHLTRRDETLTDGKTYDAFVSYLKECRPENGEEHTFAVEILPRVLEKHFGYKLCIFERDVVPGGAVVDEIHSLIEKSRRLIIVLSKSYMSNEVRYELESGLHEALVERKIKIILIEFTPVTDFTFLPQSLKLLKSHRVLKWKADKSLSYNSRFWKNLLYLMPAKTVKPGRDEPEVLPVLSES
T5 sequence 2: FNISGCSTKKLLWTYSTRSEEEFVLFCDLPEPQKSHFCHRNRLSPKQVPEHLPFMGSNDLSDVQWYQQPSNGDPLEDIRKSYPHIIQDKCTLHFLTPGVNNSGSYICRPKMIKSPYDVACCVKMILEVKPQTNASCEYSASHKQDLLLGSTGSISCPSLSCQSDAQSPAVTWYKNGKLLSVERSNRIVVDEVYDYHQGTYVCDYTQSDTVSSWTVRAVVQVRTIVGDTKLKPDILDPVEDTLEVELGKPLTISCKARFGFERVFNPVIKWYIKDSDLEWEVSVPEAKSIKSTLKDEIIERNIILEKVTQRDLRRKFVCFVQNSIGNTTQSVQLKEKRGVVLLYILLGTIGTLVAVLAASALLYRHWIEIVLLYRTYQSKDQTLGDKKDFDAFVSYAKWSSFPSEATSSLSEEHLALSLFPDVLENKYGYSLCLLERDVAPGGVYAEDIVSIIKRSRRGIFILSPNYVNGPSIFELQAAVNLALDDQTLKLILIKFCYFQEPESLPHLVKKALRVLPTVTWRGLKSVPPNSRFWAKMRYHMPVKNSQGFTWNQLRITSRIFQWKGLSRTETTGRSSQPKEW


Experiments:
[1] = molecular target: T1, IL-18 receptor (IL-18Rα/IL-18Rβ) …; assay: cell-based or functional assay
[2] = molecular target: T1, IL-18 receptor (IL-18Rα/IL-18Rβ) …; assay: cell-based or functional assay; remark: listed apart in the source
[3] = molecular target: T2, human IL-18Rα; assay: SPR (Carterra LSA), antibody captured on anti-human IgG-Fc, monomeric antigen as analyte, 25 C
Method: (§1) SPR experiments were performed using Carterra LSA equipped with an HC30M chip (Carterra-Bio). Binding assays were carried out at 25° C. with HBSTE (10 mM HEPES ph7.4, 150 mM NaCl, 3 mM EDTA, 0.05% Tween-20) with 0.5 g/L BSA. A density of anti-human IgG-Fc capture lawn was established on an HC30M chip using amine coupling. […] Coupling of goat anti-human IgG (H+L) multi-species SP ads-UNLB (Southern Biotech, 2087-01) with standard immobilization was done for 15 minutes in 10 mM sodium acetate pH 4.5 and quenched using 1M ethanolamine HCl PH8.5. The anti-human IgG-Fc capture surface was then used to capture a panel of antibodies at 20 μg/mL. Monomeric antigen for human IL-18Rα, human IL-18Rβ, cynomolgus IL-18Rα, or rhesus IL-18Rβ targeted by the antibodies was injected over the captured antibody array at 6 concentrations in 4-fold dilution series starting at 500 nM. Binding data was referenced and blanked from a buffer injected, then globally fit to a 1:1 Langmuir binding model for estimation of ka, kd, and KD using Carterra Kinetics Software.

[4] = molecular target: T3, human IL-18Rβ; assay: as above
Method: as §1

[5] = molecular target: T4, cynomolgus IL-18Rα; assay: as above
Method: as §1

[6] = molecular target: T1, IL-18 receptor (IL-18Rα/IL-18Rβ) …; assay: cell-based or functional assay; remark: listed apart in the source
[7] = molecular target: T5, IL-18 receptor (IL-18Rα/IL-18Rβ) on …; assay: cell-based or functional assay

| Binder | EC50 (read off the curve), HEK Blue IL-18 SEAP reporter [1] | HEK-Blue IL-18: Abs 405 at 100 nM [2] | HEK-Blue IL-18: Fold over Background [2] | Kd [3] | Kd [4] | Kd [5] | HEK-Blue IL-18: Abs 405 at 100 nM [6] | HEK-Blue IL-18: Fold over Background [6] | PBMC: calculated maximum induction of IFNγ after 24 hours, donor 1 [7] | PBMC: calculated maximum induction of IFNγ after 24 hours, donor 2 [7] | PBMC: calculated maximum induction of IFNγ after 24 hours, donor 3 [7] | PBMC: calculated maximum induction of IFNγ after 24 hours, donor 4 [7] | PBMC: calculated maximum induction of IFNγ after 24 hours, donor 5 [7] | PBMC: calculated maximum induction of IFNγ after 24 hours, donor 6 [7] |
| --- | --- | --- | --- | --- | --- | --- | --- | --- | --- | --- | --- | --- | --- | --- |
| DGL207 (bispecific antibody) heavy 1: QVQLVESGGGLVQAGGSLRLSCAASGRTFSKHAMGWFRQAPGKEREFVAAIDWSGGSTYYADSVKGRFTISRDNAKNTVYLQMDSLKPEDTAVYYCAADSYTDYAQLWLPELESEYDYWGQGTLVTVSSCPPCPAPEAAGAPSVFLFPPKPKDTLMISRTPEVTCVVVDVSHEDPEVKFNWYVDGVEVHNAKTKPREEQYNSTYRVVSVLTVLHQDWLNGKEYKCKVSNKALPAPIEKTISKAKGQPREPQVCTLPPSRDELTKNQVSLSCAVKGFYPSDIAVEWESNGQPENNYKTTPPVLDSDGSFFLVSKLTVDKSRWQQGNVFSCSVMHEALHNHYTQKSLSLSPGWSHPQFEK heavy 2: QLQLVESGGGLVQAGGSLRLSCAASRSITFSHNVMGWYRQAPGKQRELVASIGSGGSTNYVDSVKGRATISRDNAKKTVYLQMNSLKPEDTAVYYCGVVVGVYRGSLGQGTLVTVSSCPPCPAPEAAGAPSVFLFPPKPKDTLMISRTPEVTCVVVDVSHEDPEVKFNWYVDGVEVHNAKTKPREEQYNSTYRVVSVLTVLHQDWLNGKEYKCKVSNKALPAPIEKTISKAKGQPREPQVYTLPPCRDELTKNQVSLWCLVKGFYPSDIAVEWESNGQPENNYKTTPPVLDSDGSFFLYSKLTVDKSRWQQGNVFSCSVMHEALHNHYTQKSLSLSPGEPEA | ~0.5 nM | 2.6 Abs | 11.4 fold |  |  |  |  |  |  |  |  |  |  |  |
| DGL620 (bispecific antibody) heavy 1: EVQLLESGGGLVQPGGSLRLSCAASGRTFSKHAMGWFRQAPGKGLEFVSAIDWSGGSTYYADSVKGRFTISRDNSKNTVYLQMNSLRAEDTAVYYCAADSYTDYAQLWLPELESEYDYWGQGTLVTVSSCPPCPAPEAAGAPSVFLFPPKPKDTLYITREPEVTCVVVDVSHEDPEVKFNWYVDGVEVHNAKTKPREEQYNSTYRVVSVLTVLHQDWLNGKEYKCKVSNKALPAPIEKTISKAKGQPREPQVCTLPPSRDELTKNQVSLSCAVKGFYPSDIAVEWESNGQPENNYKTTPPVLDSDGSFFLVSKLTVDKSRWQQGNVFSCSVMHEALHNHYTQKSLSLSPG heavy 2: QLQLLESGGGLVQAGGSLRLSCAASRSITFSHNVMGWYRQAPGKGRELVSSIGSGGSTNYVDSVKGRFTISRDNSKKTLYLQMNSLRAEDTAVYYCGVVVGVYRGSLGQGTLVTVSSCPPCPAPEAAGAPSVFLFPPKPKDTLYITREPEVTCVVVDVSHEDPEVKFNWYVDGVEVHNAKTKPREEQYNSTYRVVSVLTVLHQDWLNGKEYKCKVSNKALPAPIEKTISKAKGQPREPQVYTLPPCRDELTKNQVSLWCLVKGFYPSDIAVEWESNGQPENNYKTTPPVLDSDGSFFLYSKLTVDKSRWQQGNVFSCSVMHEALHNHYTQKSLSLSPG | ~1 nM |  |  | 8 nM | 14 nM | 10 nM | 1.87 Abs | 10.1 fold | 16000 | 1300 | 22000 | 19000 | 15000 | 2400 |
| DGL333 (bispecific antibody) heavy 1: EVQLLESGGGLVQPGGSLRLSCAASGRTFSKHAMGWFRQAPGKGLEFVSAIDWSGGSTYYADSVKGRFTISRDNSKNTVYLQMNSLRAEDTAVYYCAADSYTDYAQLWLPELESEYDYWGQGTLVTVSSCPPCPAPEAAGAPSVFLFPPKPKDTLYITREPEVTCVVVDVSHEDPEVKFNWYVDGVEVHNAKTKPREEQYNSTYRVVSVLTVLHQDWLNGKEYKCKVSNKALPAPIEKTISKAKGQPREPQVCTLPPSRDELTKNQVSLSCAVKGFYPSDIAVEWESNGQPENNYKTTPPVLDSDGSFFLVSKLTVDKSRWQQGNVFSCSVMHEALHNHYTQKSLSLSPG heavy 2: QLQLLESGGGLVQPGGSLRLSCAASRSITFSHNVMGWYRQAPGKGRELVSSIGSGGSTNYVDSVKGRFTISRDNSKKTLYLQMNSLRAEDTAVYYCGVVVGVYRGSLGQGTLVTVSSCPPCPAPEAAGAPSVFLFPPKPKDTLYITREPEVTCVVVDVSHEDPEVKFNWYVDGVEVHNAKTKPREEQYNSTYRVVSVLTVLHQDWLNGKEYKCKVSNKALPAPIEKTISKAKGQPREPQVYTLPPCRDELTKNQVSLWCLVKGFYPSDIAVEWESNGQPENNYKTTPPVLDSDGSFFLYSKLTVDKSRWQQGNVFSCSVMHEALHNHYTQKSLSLSPG | ~6 nM |  |  |  |  |  |  |  |  |  |  |  |  |  |
